Reference: the RNAGym collection of RNA variant scans (doi:10.1073/pnas.2313332121)
Fewer inactive variants are shown than the library holds.

B1: TPR 5TU (parent)
chain: GGAUCUUCUCGAUCUAACAAAAAAGACAAAUCUGCCACAAAGCUUGAGAGCAUCUUCGGAUGCAGAGGCGGCAGCCUUCGGUGGCGCGAUAGCGCCAACGUUCUCAACUAUGACACGCAAAACGCGUGCUCCGUUGAAUGGAGUUUAUCAUG

Variants of: B1
Assay: polymerase ribozyme fitness, log enrichment relative to wild type (log ratio); higher = more active; in vitro selection for triplet polymerase activity
In short: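 Fitness measures genotype enrichment against wild-type enrichment on a logarithmic scale, with inverse-variance-weighted averaging of replicates. The logarithm is base 2, and genotypes were kept only with ≥10 input reads and ≥1 read per output in Illumina sequencing. The sequenced libraries came from one triplicate in vitro selection round, including frozen incubation at −7 °C, of PCR-built, transcribed mutant libraries of each subunit of a heterodimeric triplet polymerase ribozyme.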

First: A12C A24G C85U C95U A120G
Second: A12C A98G
The “polymerase ribozyme fitness (log ratio)” value of the first is lower: at most -4.2 for the first, -0.18 for the second.

Compared with A12C C85U A142U, G11U A22G C54U G65A C76U A98U C103G U144G is lower in “polymerase ribozyme fitness (log ratio)” value: -1.48 for the first, at most -4.2 for the second.

Going from G11C A12U C14A A28G A52C G62C U78A G112C to G11A G59A, the “polymerase ribozyme fitness (log ratio)” value rises from at most -4.2 to -1.71.

A12C C32G G84U and A12C A22G C32G C51G A60U U77A G81C G128A U148C cannot be ordered by “polymerase ribozyme fitness (log ratio)” value: at most -4.2 for the first, at most -4.2 for the second.

C10U G74C G88C A110G and G11C C14G A26U C105G U134G cannot be ordered by “polymerase ribozyme fitness (log ratio)” value: at most -4.2 for the first, at most -4.2 for the second.

Going from G11A C54U G83A A147U to G11C U61A G67A G94C U145G A147U, the “polymerase ribozyme fitness (log ratio)” value falls from -0.578 to at most -4.2.

G11A C14G A30U U44A U45A G92U and A12C G50C G65A C76G G83U cannot be ordered by “polymerase ribozyme fitness (log ratio)” value: at most -4.2 for the first, at most -4.2 for the second.

C10U U13G C35U G50U G59C A60U C85A G94C G141A and C10U G42U A64U C93A A106U C123U G140A cannot be ordered by “polymerase ribozyme fitness (log ratio)” value: at most -4.2 for the first, at most -4.2 for the second.

Compared with A12C G94U A150G, G11U C32U G84A C85A C105U C132U U139G U151G is lower in “polymerase ribozyme fitness (log ratio)” value: -2.61 for the first, -4.14 for the second.

G11C U56A G86A and G11C C63U C79U G86C cannot be ordered by “polymerase ribozyme fitness (log ratio)” value: at most -4.2 for the first, at most -4.2 for the second.

First: A12C G58C G94C
Second: G11U A17C A37U A121U A122U
The “polymerase ribozyme fitness (log ratio)” value of the first is higher: -1.43 for the first, -3.25 for the second.

First: C10U U53C U55A G86A G88C
Second: G11C G50U G84U A97G
The “polymerase ribozyme fitness (log ratio)” value of the first is lower: at most -4.2 for the first, -3.09 for the second.

G11C C36U U78C C85G A120C C123A G124A U151C and A12C A40G A41U A52C C54U A66G C95U cannot be ordered by “polymerase ribozyme fitness (log ratio)” value: at most -4.2 for the first, at most -4.2 for the second.

First: A12C C35U G86A C93U
Second: G11C A23G A91G C95U A121G
The “polymerase ribozyme fitness (log ratio)” value of the first is higher: -1.43 for the first, -3.82 for the second.

Going from A12C A52C C54U U145A to C10U U55A C72U, the “polymerase ribozyme fitness (log ratio)” value falls from -3.53 to -3.95.

G11U C27U A29C C75U G83C G126U and G11C C14U A37C C93U cannot be ordered by “polymerase ribozyme fitness (log ratio)” value: at most -4.2 for the first, at most -4.2 for the second.

G11A A17C A49C C85U A91U G136U and G11U A40C G70C C103G cannot be ordered by “polymerase ribozyme fitness (log ratio)” value: at most -4.2 for the first, at most -4.2 for the second.

G11C A20U C36U A60G C93G and C10U C18U U44G A60G G92A cannot be ordered by “polymerase ribozyme fitness (log ratio)” value: at most -4.2 for the first, at most -4.2 for the second.

G11U A23U and C10U G11U A30U C76A A119U A120C A137U cannot be ordered by “polymerase ribozyme fitness (log ratio)” value: at most -4.2 for the first, at most -4.2 for the second.

G11U A19U C32U U33C G74A C85U G141U C149A and G11C C38U C85G U135C cannot be ordered by “polymerase ribozyme fitness (log ratio)” value: at most -4.2 for the first, at most -4.2 for the second.

Going from G11A G92U to G11C A47U C85U, the “polymerase ribozyme fitness (log ratio)” value falls from -1.16 to -2.5.

First: A12C C18G A40U C123U G136U
Second: G11A A21G A23C C54U G70C C76A G83U
The “polymerase ribozyme fitness (log ratio)” value of the first is higher: -3.09 for the first, at most -4.2 for the second.

Going from C10U G84A to A12C C96U, the “polymerase ribozyme fitness (log ratio)” value rises from -3.34 to -0.42.

G11A U15G A107G G141C U144C U145A G152A and A12C G81A G92C C99U G124C G133U cannot be ordered by “polymerase ribozyme fitness (log ratio)” value: at most -4.2 for the first, at most -4.2 for the second.

A12C A20C U53A C76A U151G and C10U G94A U148G cannot be ordered by “polymerase ribozyme fitness (log ratio)” value: at most -4.2 for the first, at most -4.2 for the second.

First: G11C G48A A52G C96U A113G C118U G141U A142C U151G
Second: C10U G141A
The “polymerase ribozyme fitness (log ratio)” value of the first is lower: at most -4.2 for the first, -2.07 for the second.

A12C A41C C54U G94U A121G G140C and A12C A23G U31C U55A cannot be ordered by “polymerase ribozyme fitness (log ratio)” value: at most -4.2 for the first, at most -4.2 for the second.

First: G11C C63U C85U G86U C114U
Second: G11U A47G U53A
The “polymerase ribozyme fitness (log ratio)” value of the first is lower: at most -4.2 for the first, -2.54 for the second.

A12C A21U U53A G59C A60G G84A and A12C G62A A122U are within 0.2 log units of each other in “polymerase ribozyme fitness (log ratio)” value: -0.862 for the first, -0.923 for the second.

Going from G11A A91G to G11U C38A C125U, the “polymerase ribozyme fitness (log ratio)” value rises from -3.81 to -2.71.

Going from G11A C43G U90C G94A to G11U C38A G83U U135C C149G, the “polymerase ribozyme fitness (log ratio)” value falls from -4.13 to at most -4.2.

First: A12C C125U
Second: G11C A28G U56A U77A C87A A122U
The “polymerase ribozyme fitness (log ratio)” value of the first is higher: -0.492 for the first, at most -4.2 for the second.

Compared with G11C G46A G58A G83A, A12C C85G is higher in “polymerase ribozyme fitness (log ratio)” value: -3.26 for the first, -2.59 for the second.

Going from G11A A52G U53A C54A G84U G128U C132U to G11C C36U C57A G100A, the “polymerase ribozyme fitness (log ratio)” value falls from -4.13 to at most -4.2.

First: G11A A26C C27G C35U C87A G124A
Second: A12C A30G
The “polymerase ribozyme fitness (log ratio)” value of the first is lower: -4.15 for the first, -3.77 for the second.

Compared with G11A C125U U139G, G11C G42U U55G C76U is lower in “polymerase ribozyme fitness (log ratio)” value: -2.67 for the first, at most -4.2 for the second.

Going from G11C G50A G92U G143A to A12C C99A A119G U145C, the “polymerase ribozyme fitness (log ratio)” value rises from -4.01 to -1.83.

G11A A19U U61A G84C C85A C103G and C10U G50A U55G A91G G143C cannot be ordered by “polymerase ribozyme fitness (log ratio)” value: at most -4.2 for the first, at most -4.2 for the second.

G11C A41C A66C C85U A122U G140U and G11A C14G A66U C87A A106U G143C cannot be ordered by “polymerase ribozyme fitness (log ratio)” value: at most -4.2 for the first, at most -4.2 for the second.

Going from G11A C38A A40G to G11A G141U, the “polymerase ribozyme fitness (log ratio)” value rises from -4.14 to 0.246.

C10U C54A G88U A115G and G11C A37C U55G C93A C99G G124U C149U cannot be ordered by “polymerase ribozyme fitness (log ratio)” value: at most -4.2 for the first, at most -4.2 for the second.

In the case of G11A A29U U82G C87A G94C C96U A98G A122C G141A, the “polymerase ribozyme fitness (log ratio)” value is reported as at most -4.2.
